# Data taken from paper PMC4245193.
# pKd: −log10 of the molar value.
# Tested on: stable placental multi-protein complex SPC-1 (donor 1) (Homo sapiens (placenta, donor 1))
# Assay: tryptophan fluorescence quenching titration (Scatchard)
# Conditions: 5' phosphate as printed (pT), 20 mM Tris-HCl pH 7.5, 150 mM NaCl, 0.3 mg/ml SPC, 25 C, excitation 283 nm, emission 338 nm
sequence,measurement,setting,value
TAGAAGATCAAA [12-mer ODN],pKd,high-affinity site (Kd1),7.44
same,pKd,low-affinity site (Kd2),5.59
